One assay addresses Cy-GPC3 (GP3-C5225) (Cy (so in the source)). Put plainly: Octet QKe BLI, antibody on AHC probe, antigen in solution, 1:1 fit.
The target in assay [1] is T1, Glypican 3 Protein, Human, Recombinant (His Tag) (Sino Biological, Cat #10088-H08H) (human, UniProt P51654 25-559).
T1 construct: Bought recombinant protein; also called Hu-GPC3 (10088-H08H); human GPC3; not shown: His tag
Described as above.

The target of assay [2] is T1, Glypican 3 Protein, Human, Recombinant …. Put plainly: Octet QKe BLI, ratio of KDs against P17 WT.
Assay [3] shares this target. Briefly: Octet QKe BLI, IgG on AHC probe, GPC3 (Sino Biological) in solution, 1:1 fit.

Some results are limits rather than exact numbers.

T1 sequence (P51654 25-559 limits assumed): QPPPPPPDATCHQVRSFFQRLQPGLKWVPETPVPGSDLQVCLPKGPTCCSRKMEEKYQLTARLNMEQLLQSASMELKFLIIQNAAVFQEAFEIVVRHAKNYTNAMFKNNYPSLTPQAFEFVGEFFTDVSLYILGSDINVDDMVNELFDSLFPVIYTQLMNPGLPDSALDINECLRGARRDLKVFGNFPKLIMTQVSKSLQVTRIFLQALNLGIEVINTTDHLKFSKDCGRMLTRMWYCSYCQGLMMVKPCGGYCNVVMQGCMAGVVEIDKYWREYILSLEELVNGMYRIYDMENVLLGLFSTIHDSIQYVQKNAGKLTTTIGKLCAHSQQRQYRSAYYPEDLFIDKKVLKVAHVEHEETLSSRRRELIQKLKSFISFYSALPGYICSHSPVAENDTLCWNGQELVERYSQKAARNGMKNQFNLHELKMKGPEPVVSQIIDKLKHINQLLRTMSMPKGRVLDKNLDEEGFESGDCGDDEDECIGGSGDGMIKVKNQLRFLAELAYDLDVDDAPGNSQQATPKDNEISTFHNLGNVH

B1: P10 anti-GPC3 scFv-Fc (Fc fusion)
VH: EVQLVQSGAEVKKPGSSVKVSCKASGGTFRSYAISWVRQAPGQGLEWMGGIIPIFGTANYAQKFQGRVTITADELTSTAYMELSSLRSEDTAVYYCASRIGQWPTPFDYWGQGTLVTVSS
VL: QSVLTQPPSVSVAPGKTARITCGGNNIGSKSVHWYQQKPGQAPVLVIYYDSDRPSGIPERFSGSNSGNTATLTISRVEAGDEADYYCQVWDSSSDHPVFGGGTKLTVL
notes: scFv-Fc, human IgG1 constant regions
B1: the figures for the dissociation constant Kd (with Cy-GPC3 (GP3-C5225); in assay [1]) were 1.28 nM and 2.85 nM, respectively.

B2: P17-8E12 IgG (antibody, V domains shown)
VH: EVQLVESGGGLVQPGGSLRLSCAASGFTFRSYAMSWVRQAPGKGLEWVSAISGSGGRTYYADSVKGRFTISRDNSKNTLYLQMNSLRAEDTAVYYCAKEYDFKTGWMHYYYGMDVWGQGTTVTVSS
VL: QSVLTQPPSVSGAPGQRVTISCTGSSSGYDVHWYQQLPGRAPKLLIYGSNNRPSGVPDRFSGSNSGTSASLAITGLQAEDEADYYCQSYDSSLNAIFGGGTKLTVL
notes: IgG
With B2, in assay [2], the “fold lower KD than P17 WT” value stood at 6000 fold. Also, in assay [3], the Kd was less than 0.001 nM, the koff stood at 1.79e-07 s⁻¹ and the kon turned out to be 223000 M⁻¹ s⁻¹.

B3: P17-11F4 IgG (antibody, V domains shown)
VH: EVQLVESGGGLVQPGGSLRLSCAASGFTFKDYAMSWVRQAPGKGLEWVSALSGSGGATYYADSVKGRFTISRDNSKNTLYLQMNSLRAEDTAVYYCAKEMDFRYGWMHYYYGMDVWGQGTTVTVSS
VL: B2 VL
notes: IgG
B3: in assay [2], the “fold lower KD than P17 WT” value stood at 6000 fold. In assay [3], the Kd was less than 0.001 nM, the koff was 1.83e-07 s⁻¹ and the kon was determined as 188000 M⁻¹ s⁻¹.

For the origin of these results see patent US20260132214A1 (JECHO LABORATORIES, published 2026).
